± gives the uncertainty stated by the source.
Assay: protein stability index of a GFP-peptide fusion (yeast GPS) (PSI 1-4); higher = more stable; sorted into four equal gates, so the index is relative within each strain
Summary of the method: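 The protein stability index combines read frequencies across sorting gates, each weighted by its gate number and then summed. To obtain those frequencies, a pooled yeast library of GFP fusions to tiled 17-residue yeast protein peptides, on a plasmid also expressing Cherry, was grown to mid-log phase in leucine-free medium. The cells were sorted into four equal gates by GFP/Cherry ratio before plasmid amplification by PCR and Illumina sequencing.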

| Sequence | protein stability index (doa10∆) | protein stability index (pdr5∆) | protein stability index (san1∆) | protein stability index (ubr1∆) |
| --- | --- | --- | --- | --- |
| AAKKAMYTLSAQDEVFS [ASC1] | 2.78 ± 0.071 | 2.6 ± 0.063 | 2.23 ± 0.091 | 2.83 ± 0.06 |
| FVSESPSFVKSGKLRDY [ISW2] | 2.41 ± 0.059 | 2.11 ± 0.051 | 2.28 ± 0.049 | 2.7 ± 0.044 |
| PYLLPYILEAEAAAKEK [QCR7] | 1.39 ± 0.07 | 1.26 ± 0.062 | 1.5 ± 0.11 | 1.19 ± 0.053 |
| GRRKTWKRQNTLSLWRY [RPL15A] | 3.21 ± 0.1 | 3.11 ± 0.11 | 2.57 ± 0.085 | 3.37 ± 0.057 |
| NMFGDYSNEPFNTNFDD [SNF6] | 3.11 ± 0.088 | 2.78 ± 0.059 | 3.06 ± 0.069 | 2.85 ± 0.045 |
| RRGYQVYREVCAACHSL [CYT1] | 2.22 ± 0.073 | 1.94 ± 0.059 | 1.47 ± 0.085 | 1.59 ± 0.039 |
| RKPILLPDPKPLPLDLN [ITC1] | 2.34 ± 0.044 | 2.55 ± 0.045 | 2.52 ± 0.065 | 2.14 ± 0.04 |
| SEYSSEASNTPIEHQFN [PRE7] | 3.16 ± 0.078 | 3.21 ± 0.072 | 3 ± 0.036 | 3.3 ± 0.1 |
| QIRSADEPMTTFYKCVN [RPC11] | 2.26 ± 0.2 | 2.54 ± 0.078 | 2.2 ± 0.14 | 2.77 ± 0.085 |
| PPPPPPSNFEINAEEIV [PRP8] | 2.6 ± 0.038 | 3.04 ± 0.046 | 2.72 ± 0.039 | 2.9 ± 0.038 |
| IHSMNENPTPEKGNAKM [SIR3] | 2.94 ± 0.087 | 2.67 ± 0.069 | 3.03 ± 0.059 | 2.87 ± 0.048 |
| VFFDDDPLYDITKVPAL [REC8] | 2.47 ± 0.063 | 2.92 ± 0.082 | 2.7 ± 0.065 | 2.88 ± 0.055 |
| IMKFQSLSDNDLAVCAT [ECM29] | 2.03 ± 0.076 | 2.46 ± 0.067 | 2.69 ± 0.062 | 2.77 ± 0.064 |
| QLTSLEKDCSLRAIEKN [YIL149C/MLP2] | 2.58 ± 0.068 | 2.8 ± 0.064 | 2.98 ± 0.058 | 3.06 ± 0.047 |
| KKSQCKKKTTLEDFENF [YIL149C/MLP2] | 2.87 ± 0.053 | 3.04 ± 0.051 | 3.08 ± 0.04 | 3.14 ± 0.048 |
| LKSESATSQYLKQDLKK [YGL172W/NUP49] | 2.81 ± 0.079 | 2.88 ± 0.072 | 2.9 ± 0.061 | 2.95 ± 0.079 |
| GVTSLGIKATNGVVIAT [PRE8] | 2.82 ± 0.14 | 2.62 ± 0.16 | 3.05 ± 0.1 | 3.28 ± 0.29 |
| HLRYQPDGVVVHRDDPA [SNF6] | 2.91 ± 0.12 | 3.29 ± 0.1 | 2.94 ± 0.082 | 3.28 ± 0.08 |
| AQFAGRASIEYYVGQVM [DIS3] | 3.46 ± 0.28 | 2.84 ± 0.2 | 2.64 ± 0.17 |  |
| CNEEQTLEAKIGGLLSK [RPO31] | 3.16 ± 0.059 | 3.25 ± 0.059 | 2.99 ± 0.052 | 2.91 ± 0.05 |
| TRKSLNNAVRFSKQCLI [ECM29] | 2.15 ± 0.06 | 2.96 ± 0.061 | 2.42 ± 0.06 | 2.56 ± 0.05 |
| KQEIMMSDLFTFDWFIK [ISW2] | 2.85 ± 0.075 | 2.6 ± 0.055 | 2.46 ± 0.07 | 2.9 ± 0.047 |
| RVHRRNNRWAENNYKKR [RPS23A] | 3.26 ± 0.29 | 3.55 ± 0.21 |  | 3.54 ± 0.1 |
| EAQDEASLQQQQQQDLQ [SNF6] | 3.27 ± 0.14 | 3.15 ± 0.1 | 3.12 ± 0.073 | 3.2 ± 0.18 |
| KQRTKKEDKSEAIDGNG [SNF2] | 3.55 ± 0.13 | 3.36 ± 0.075 | 3.17 ± 0.073 | 3.19 ± 0.072 |
| LRKIQALRDVKNNNNAN [GAL11] | 3.05 ± 0.077 | 2.87 ± 0.097 | 3.15 ± 0.1 | 3.11 ± 0.071 |

| Sequence | protein stability index (doa10∆) | protein stability index (pdr5∆) | protein stability index (san1∆) | protein stability index (ubr1∆) |
| --- | --- | --- | --- | --- |
| TQEFSKNYTTETDNEMN [SIR3] | 3.31 ± 0.12 | 3.49 ± 0.064 | 3.64 ± 0.075 | 3.29 ± 0.055 |
| RTTTNTTAEPKAKRAKT [TAF14] | 2.67 ± 0.28 | 2.98 ± 0.25 | 3.1 ± 0.088 | 2.59 ± 0.2 |
| SLNLQYVNYEISTAKAW [YML103C/NUP188] | 2.6 ± 0.055 | 2.93 ± 0.082 | 2.55 ± 0.074 | 2.69 ± 0.058 |
| ATLKEIKSIIEQRKQKL [SMC3] | 2.89 ± 0.087 | 3.16 ± 0.08 | 3.16 ± 0.046 | 3.04 ± 0.052 |
| DGKLIDISGTMSGGGNH [SMC4] | 3.42 ± 0.11 | 3.4 ± 0.11 | 3.54 ± 0.075 | 3.6 ± 0.088 |
| VLTQLTALALKYLIKYN [CSI1] | 2.37 ± 0.11 | 2.75 ± 0.08 | 2.55 ± 0.11 | 2.47 ± 0.074 |
| NVTETYSVYLIHEIRLN [SIR3] | 2.59 ± 0.23 | 1.98 ± 0.099 | 2.42 ± 0.14 | 2.37 ± 0.066 |
| RSPRVVTNALDNIDEKV [NUT1] | 2.92 ± 0.056 | 2.79 ± 0.054 | 2.77 ± 0.058 | 3.03 ± 0.058 |
| VKKPHRYKPGTVALREI [HHT1] | 3.15 ± 0.14 | 3.17 ± 0.1 | 2.75 ± 0.094 | 3.25 ± 0.12 |
| GMGIGFIDHHAAIRQPT [POP1] |  | 2.94 ± 0.086 |  | 2.49 ± 0.15 |
| SDEEEVTEMSNNANVLG [BRR2] | 3.03 ± 0.065 | 3.1 ± 0.049 | 2.83 ± 0.063 | 3.17 ± 0.046 |
| VESQFSAGRLYACISSR [RPS8A] | 2.08 ± 0.11 | 2.65 ± 0.097 | 1.99 ± 0.14 | 2.55 ± 0.14 |
| DLEEAYATQVKTDNTVD [RPT3] | 2.19 ± 0.18 | 2.58 ± 0.091 | 2.47 ± 0.14 | 2.79 ± 0.1 |
| MTSENPDVLLSRVINVV [RRP6] | 1.39 ± 0.12 | 1.61 ± 0.083 | 1.49 ± 0.12 | 2.27 ± 0.14 |
| KLKEMQKVLNAHRQRAM [SMC4] | 1.84 ± 0.099 | 2.14 ± 0.12 | 1.9 ± 0.12 | 1.57 ± 0.055 |
| LQYIIHDTLNNEIANSI [BRR2] | 2.67 ± 0.057 | 2.69 ± 0.076 | 2.86 ± 0.077 | 2.76 ± 0.056 |
| LIIKYQKYWESMRIQIL [GAL11] | 1.49 ± 0.064 | 1.95 ± 0.076 | 1.71 ± 0.087 | 1.65 ± 0.06 |
| VLGFLQLFHNLISIHSR [YJL039C/NUP192] | 2.67 ± 0.068 | 2.89 ± 0.059 | 2.85 ± 0.056 | 2.98 ± 0.048 |
| HPPDFKRMLLSLSEFAR [SNF2] | 1.32 ± 0.038 | 1.33 ± 0.036 | 1.26 ± 0.064 | 1.27 ± 0.023 |
| PYPGSPMHSIMPNSSLQ [DSN1] | 2.85 ± 0.091 | 2.88 ± 0.052 | 2.63 ± 0.057 | 2.83 ± 0.034 |
| AQFLRSVVHPGEMVGVL [RPO21] | 2.23 ± 0.081 | 1.93 ± 0.08 | 2.3 ± 0.1 | 1.49 ± 0.054 |
| ILCGIQEYLNPVIDTQI [YDL116W/NUP84] |  | 2.12 ± 0.2 | 2.01 ± 0.17 |  |
| KKCIDFFEMLISKSLTF [RRI2] | 2.13 ± 0.055 | 2.13 ± 0.041 | 1.96 ± 0.061 | 2.27 ± 0.038 |
| RDVYVFDKVEVQVRSVM [DIS3] | 2.92 ± 0.067 | 3 ± 0.068 | 3.33 ± 0.052 | 3.24 ± 0.071 |
| SDRECPKCHSRENVFFQ [RPB9] | 2.88 ± 0.062 | 2.74 ± 0.061 | 2.47 ± 0.058 | 2.79 ± 0.04 |
| KSKLFEWKSEFVVPTFG [SNM1] | 1.57 ± 0.058 | 1.63 ± 0.067 | 2.6 ± 0.08 | 1.32 ± 0.067 |

Source: the supplement of paper PMC9732359
